# Source: patent US12187807B2, “Antibody molecules to C5AR1 and uses thereof” (Visterra, Inc., priority 2020, dated 2025)
# Substitutions are numbered along the chain they refer to.
# T1: human C5aR1 transiently expressed on the surface of Expi293 cells (Homo sapiens, UniProt P21730, K279N)
# T1 construct: expressed in transfected cells; host or cells: Expi293 cells, transient
# T1 sequence (P21730 with tags, fused parts or gaps K279N limits assumed): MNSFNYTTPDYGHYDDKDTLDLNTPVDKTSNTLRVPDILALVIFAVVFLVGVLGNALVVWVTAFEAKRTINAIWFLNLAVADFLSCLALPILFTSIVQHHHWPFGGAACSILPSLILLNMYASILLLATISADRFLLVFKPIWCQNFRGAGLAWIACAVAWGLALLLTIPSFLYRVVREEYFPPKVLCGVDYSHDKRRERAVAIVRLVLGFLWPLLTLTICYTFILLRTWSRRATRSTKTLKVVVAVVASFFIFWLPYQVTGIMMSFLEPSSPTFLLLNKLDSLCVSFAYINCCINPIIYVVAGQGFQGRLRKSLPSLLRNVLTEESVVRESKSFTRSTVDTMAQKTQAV
# T2: C5aR1 (Homo sapiens, UniProt P21730)
# T2 sequence (P21730 1-350): T1 sequence (P21730 with tags, fused parts or gaps K279N limits assumed) with N2D, N279K
# B1: Clone_11v2 (antibody, V domains shown)
# VH: QVQLQQSGPELVKPGASVKISCKASGYSFSSSWMNWVKQRPGKGLEWIGRISPGDGDTRYSGKFKGKATLTADKSSSTAYMQVTSLTSEDSAIYFCVRFLITSTRYVMDYWGQGTTVTVSS
# VL: DVVMTQTPLSLPVSLGDQASISCRSSQSLVHSNGNTYLHWYLQKPGQSPKLLIYKVSNRFSGVPDRFSGSGSGTDFTLKISRVEAEDLGVYFCSQSTLVPPTFGGGTKLEIK
# B2: C5a: complement component 5a, agonist of C5aR1 (protein, UniProt P01031 678-751, looked up)
# C5a anaphylatoxin: TLQKKIEEIAAKYKHSVVKKCCYDGACVNNDETCEQRAARISLGPRCIKAFTECCVVASQLRANISHKDMQLGR
# modifications: C5a anaphylatoxin
# notes: complement component 5a, agonist of C5aR1
# How the values were obtained:
# [1] = oral administration, human C5aR1 transgenic mice; cited from earlier work
# [2] = system: control cells that were mock transfected; assay: Cell surface binding (flow cytometry), mock transfected Expi293 control cells; settings: staining with 100 nM of antibody
# Protocol: (§1) Follow up screening to ensure specificity was performed by measuring cell surface binding to cells expressing, for example, human C5aR1, human C5aR2, mouse C5aR1, and control cells that were mock transfected. Briefly, cell surface binding was performed on various C5aR1 expressing cell lines (transiently expressed Expi293 cells, stable C5aR1-U937 cells, and neutrophils isolated from whole blood). Briefly, a titration of antibody diluted in flow buffer (1×PBS with 2% fetal bovine serum) was incubated with cells for 1 hour at 4° C. Cells were washed twice with flow buffer. Anti-human-APC secondary antibody was diluted 1:400 in flow buffer and incubated with cells for 30 minutes. Cells were washed twice with flow buffer and resuspended in 100 μL of flow buffer. Fluorescence was measured using the iQue Screen Plus flow cytometer.
# [3] = target: T1, human C5aR1 transiently expressed on the surface of Expi293 cells; assay: Cell surface binding (flow cytometry), Expi293 cells transiently expressing human C5aR1; settings: staining with 100 nM of antibody
# Protocol: as §1
# C5aR1 = target: T2, C5aR1; settings: cited from earlier work
molecule,measurement,setting,value
"Cc1ccc(NC(=O)[C@H]2CCCN(C(=O)c3c(C)cccc3F)[C@H]2c2ccc(NC3CCCC3)cc2)cc1C(F)(F)F [Avacopan, avacopan]",severity of anti-MPO NCGN,[1],reduced the severity of anti-MPO NCGN
B1,"Cell surface binding, Mock transfection, geometric mean fluorescent intensity",[2],"4,976 Clone_454"
same,"Cell surface binding, Human C5aR1, geometric mean fluorescent intensity",[3],"310,187"
B2,on rate for C5aR1,C5aR1,about 4.8e8 M^−1min^−1
